Assay results reported in ChEMBL document CHEMBL1142441, “Stereochemical studies on the novel monoamine oxidase B substrates (1R,6S)- and (1S,6R)-3-methyl-6-phenyl-3-aza-bicyclo[4.1.0]heptane” (Bioorg Med Chem, 2008).

Key:
[1] = substrate: [H][C@@]12CN(C)CC[C@]1(c1ccccc1)C2; assay: (§1) Activity of 50 nM human recombinant MAOB after 30 mins
[2] = substrate: [H][C@]12CN(C)CC[C@@]1(c1ccccc1)C2; assay: as §1

B1: Amine oxidase [flavin-containing] B (Homo sapiens) (protein)
chain: MSNKCDVVVVGGGISGMAAAKLLHDSGLNVVVLEARDRVGGRTYTLRNQKVKYVDLGGSYVGPTQNRILRLAKELGLETYKVNEVERLIHHVKGKSYPFRGPFPPVWNPITYLDHNNFWRTMDDMGREIPSDAPWKAPLAEEWDNMTMKELLDKLCWTESAKQLATLFVNLCVTAETHEVSALWFLWYVKQCGGTTRIISTTNGGQERKFVGGSGQVSERIMDLLGDRVKLERPVIYIDQTRENVLVETLNHEMYEAKYVISAIPPTLGMKIHFNPPLPMMRNQMITRVPLGSVIKCIVYYKEPFWRKKDYCGTMIIDGEEAPVAYTLDDTKPEGNYAAIMGFILAHKARKLARLTKEERLKKLCELYAKVLGSLEALEPVHYEEKNWCEEQYSGGCYTTYFPPGILTQYGRVLRQPVDRIYFAGTETATHWSGYMEGAVEAGERAAREILHAMGKIPEDEIWQSEPESVDVPAQPITTTFLERHLPSVPGLLRLIGLTTIFSATALGFLAHKRGLLVRV
Question: B1 was tested. Which Km [1] did it give?
Answer: Its Km is 221 µM.

Question: What about the Km [2] of the same protein?
Answer: The Km was 221 µM.
